Kd data for six molecules are collected here from publication PMC8218332 (Cell, 2021).

To fix the notation:
B1: REGN10987 (antibody, V domains shown)
VH: QVQLVESGGGVVQPGRSLRLSCAASGFTFSNYAMYWVRQAPGKGLEWVAVISYDGSNKYYADSVKGRFTISRDNSKNTLYLQMNSLRTEDTAVYYCASGSDYGDYLLVYWGQGTLVTVSS
VL: QSALTQPASVSGSPGQSITISCTGTSSDVGGYNYVSWYQQHPGKAPKLMIYDVSKRPSGVSNRFSGSKSGNTASLTISGLQSEDEADYYCNSLTSISTWVFGGGTKLTVL
notes: source: provided by AstraZeneca; copies: 2 + 2
B2: mAb 316 (antibody, V domains shown)
VH: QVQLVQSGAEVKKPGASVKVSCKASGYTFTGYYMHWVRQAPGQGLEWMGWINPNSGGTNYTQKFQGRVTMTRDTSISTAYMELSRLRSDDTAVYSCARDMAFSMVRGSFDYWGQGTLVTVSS
VL: QAVLTQPPSASGSPGQSVTISCTGTSSDVGGYNYVSWYQQHPGKAPKLMIYEVSKRPSGVPDRFSGSKSGNTASLTVSGLQAEDEADYYCSSYAGSNHWVFGGGTKLTVL
notes: copies: 2 + 2
B3: mAb 222 (antibody, V domains shown)
VH: EVQLVESGGGLIQPGGSLRLSCAASGLTVSSNYMSWVRQAPGKGLEWVSVIYSGGSTFYADSVKGRFTISRDNSKNTLYLQMNSLGAEDTAVYYCARGEGSPGNWFDPWGQGTLVTVSS
VL: DVVMTQSPGTLSLSPGERATLSCRASQSVPSSYLAWYQQKPGQAPRLLIYGASTRATGIPDRFSGSGSGTDFTLTISRLEPEDFAVYYCQHYDTSPRFGGGTKVDIK
notes: copies: 2 + 2
B4: mAb 88 (antibody, V domains shown)
VH: QLQLQESGPGLVKPSQTLSLTCTVSGGSISSGSYNWTWIRQPAGKGLEWIGRIYNSGSTNYNPSLKSRVTISVDTSKNQLSLKVRSVTAADTAVYYCARHCSGGTCYPKYYYGMDVWGQGTTVTVSS
VL: QSALTQPPSVSEAPRQRVTISCSGSSSNIGNNAVNWYQQFPGKAPKLLIYYDDLLPSGVSDRFSGSKSGTSASLAISGVQSEDEADYYCAAWDDSLNVVVFGGGTKLTVL
notes: copies: 2 + 2
B5: mAb 278 (antibody, V domains shown)
VH: QVQLVQSGAEVKKPGASVKVSCKASGYIFIRYGISWVRQAPGQGLEWMGWISANNGYTNYAQKLQGRVTMTTDTSTSTAYMELRSLRSDDTAVYYCARDGGILTGYLDYFDHWGQGTLVTVSS
VL: DIQMTQSPSSLSASVGDRLTITCRASQSIASYLNWYQQKPGKAPKLLIYAASSLQSGVPSRFSGSGSGTDFTLTISSLQPEDFATYHCQQSYSTLGITFGPGTKVDIK
notes: copies: 2 + 2
B6: mAb 384 (antibody, V domains shown)
VH: EVQLVESGGGLVKPGESLRLSCAASGFTFSDYYMTWIRQAPGKGLEWVSYIRSSGHTIYYADSVKGRFTISRDNAKNSLYLQMNSLRVEDTAVYYCARGGVLRFLEWPLNAFDIWGQGTMVTVSS
VL: DIQLTQSPSSLSASVGDRVTITCRASQGISNYLAWYQQKPGKVPKLLIYAASTLQSGVPSRFSGSGSGTDFTLTISSLQPEDVATYYCQKYNNALGTFGQGTKVEIK
notes: copies: 2 + 2

In the assay the target is His-tagged SARS-CoV-2 RBD (Victoria RBD) (SARS-CoV-2, Victoria/Wuhan-Hu-1 (same …, UniProt P0DTC2)). The experiment in a line: BLI. The following applies: both partners purified.
By Kd is commonly meant a measure of binding affinity in units of concentration. The low end stands for a tighter complex, the high end for a looser complex. For B1, the Kd was 0.38 nM.

With B2, the Kd turned out to be 0.38 nM. This counts as sub-nanomolar.

For B3, the affinity, expressed as Kd, was 0.25 nM.

B4 returned a Kd of 4.4 nM.

In turn, B5 gave a Kd of 1.6 nM.

B6: binding was characterised by a dissociation constant (Kd) of 0.65 nM.
